# Source: PMC4751538, “Structural Insights into the Tetrameric State of Aspartate-β-semialdehyde Dehydrogenases from Fungal Species” (Scientific Reports, 2016)
# T1: trASADH (T. rubrum aspartate-β-semialdehyde dehydrogenase) (Trichophyton rubrum, UniProt A0A080WMA9)
# T1 construct: gene TERG_03598; full length 362 aa, N-terminal 6xHis tag (pET-28a), E. coli; homotetramer
# T1 sequence (A0A080WMA9 1-362): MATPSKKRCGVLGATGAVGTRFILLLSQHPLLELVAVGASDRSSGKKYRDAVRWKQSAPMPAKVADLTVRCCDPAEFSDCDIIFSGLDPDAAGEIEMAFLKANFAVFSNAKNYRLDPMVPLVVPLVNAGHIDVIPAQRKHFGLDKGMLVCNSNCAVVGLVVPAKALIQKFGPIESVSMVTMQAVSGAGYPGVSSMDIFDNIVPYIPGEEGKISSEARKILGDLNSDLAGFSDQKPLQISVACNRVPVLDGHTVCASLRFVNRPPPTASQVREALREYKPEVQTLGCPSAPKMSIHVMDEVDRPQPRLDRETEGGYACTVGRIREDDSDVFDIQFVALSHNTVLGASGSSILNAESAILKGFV
# What was measured:
# [1] = biological target: Aspartate-β-semialdehyde dehydrogenase from Aspergillus fumigatus (A. fumigatus); test: native gel or EMSA; native PAGE (3-12%), migration against molecular weight standards
# [2] = biological target: T1, trASADH (T. rubrum aspartate-β-semialdehyde dehydrogenase); test: isothermal titration calorimetry; assay type: binding
# [3] = biological target: Aspartate-β-semialdehyde dehydrogenase from Cryptococcus neoformans (C. neoformans); test: native gel or EMSA; native PAGE (3-12%), migration against molecular weight standards
# [4] = biological target: Aspartate-β-semialdehyde dehydrogenase from Streptococcus pneumoniae (Streptococcus pneumoniae); test: as above
# [5] = biological target: Aspartate-β-semialdehyde dehydrogenase from Streptococcus pneumoniae (Streptococcus pneumoniae); test: AUC; sedimentation velocity, 4 °C, 20 mM Tris pH 8.0, 100 mM NaCl, all proteins at OD280 = 0.85, 50,000 rpm, Sedfit
# [6] = biological target: Aspartate-β-semialdehyde dehydrogenase from Vibrio cholerae (V. cholerae); test: native gel or EMSA; native PAGE (3-12%), migration against molecular weight standards
# [7] = biological target: the molecule itself; test: cell-based or functional assay
# [8] = biological target: the molecule itself; test: SEC; Superose 6 PC3.2/30, 20 mM Tris-HCl pH 8.0, 100 mM NaCl, ~3 mg/ml, calibrated with mass standards (also the final Superdex 200 purification step)
# [9] = biological target: the molecule itself; test: AUC; sedimentation velocity, 4 °C, 20 mM Tris pH 8.0, 100 mM NaCl, all proteins at OD280 = 0.85, 50,000 rpm, Sedfit
# [10] = biological target: the molecule itself; test: native gel or EMSA; native PAGE (3-12%), migration against molecular weight standards
molecule,measurement,setting,value
Aspartate-β-semialdehyde dehydrogenase from Aspergillus fumigatus (enzyme),stoichiometry N,[1],4
NC(=O)c1ccc[n+]([C@@H]2O[C@H](COP(=O)(O)OP(=O)(O)OC[C@H]3O[C@@H](n4cnc5c(N)ncnc54)[C@H](OP(=O)(O)O)[C@@H]3O)[C@@H](O)[C@H]2O)c1 [NADP],Kd,[2],76.9 µM
Aspartate-β-semialdehyde dehydrogenase from Cryptococcus neoformans (enzyme),stoichiometry N,[3],4
Aspartate-β-semialdehyde dehydrogenase from Streptococcus pneumoniae (enzyme),stoichiometry N,[4],2
same,stoichiometry N,[5],2
Aspartate-β-semialdehyde dehydrogenase from Vibrio cholerae (enzyme),stoichiometry N,[6],2
"trASADH with mutation D196A (enzyme, Aspartate-β-semialdehyde dehydrogenase of Trichophyton rubrum BMU01672 (362 aa) with the point mutation D196A; parent as m1; source: E. coli B834(DE3) or Rosetta(DE3), purified (Ni-NTA, Hitrap Q, Superdex 200)) SKKRCGVLGATGAVGTRFILLLSQHPLLELVAVGASDRSSGKKYRDAVRWKQSAPMPAKVADLTVRCCDPAEFSDCDIIFSGLDPDAAGEIEMAFLKANFAVFSNAKNYRLDPMVPLVVPLVNAGHIDVIPAQRKHFGLDKGMLVCNSNCAVVGLVVPAKALIQKFGPIESVSMVTMQAVSGAGYPGVSSMAIFDNIVPYIPGEEGKISSEARKILGDLNSDLAGFSDQKPLQISVACNRVPVLDGHTVCASLRFVNRPPPTASQVREALREYKPEVQTLGCPSAPKMSIHVMDEVDRPQPRLDRETEGGYACTVGRIREDDSDVFDIQFVALSHNTVLGASGSSILNAESAILKGFV","enzymatic activity (kcat) at 25 °C, tetrameric single mutant",[7],15.9 s⁻¹
same,stoichiometry N,[8],4
"Aspartate-β-semialdehyde dehydrogenase from Trichophyton rubrum, wild type (enzyme, Aspartate-β-semialdehyde dehydrogenase (ASADH) of Trichophyton rubrum BMU01672, wild type, 362 aa as printed; theoretical monomer 38.7 kDa; The apo crystal (4ZHS) was a selenomethionine derivative; Cloned in pET-28a; also called trASADH; ASADH; source: E. coli B834(DE3) or Rosetta(DE3), purified (Ni-NTA, Hitrap Q, Superdex 200)) SKKRCGVLGATGAVGTRFILLLSQHPLLELVAVGASDRSSGKKYRDAVRWKQSAPMPAKVADLTVRCCDPAEFSDCDIIFSGLDPDAAGEIEMAFLKANFAVFSNAKNYRLDPMVPLVVPLVNAGHIDVIPAQRKHFGLDKGMLVCNSNCAVVGLVVPAKALIQKFGPIESVSMVTMQAVSGAGYPGVSSMDIFDNIVPYIPGEEGKISSEARKILGDLNSDLAGFSDQKPLQISVACNRVPVLDGHTVCASLRFVNRPPPTASQVREALREYKPEVQTLGCPSAPKMSIHVMDEVDRPQPRLDRETEGGYACTVGRIREDDSDVFDIQFVALSHNTVLGASGSSILNAESAILKGFV",stoichiometry N,[9],4
"trASADH with mutation Y189A (enzyme, Aspartate-β-semialdehyde dehydrogenase of Trichophyton rubrum BMU01672 (362 aa) with the point mutation Y189A; parent as m1; also called trASADH-Y189A; source: E. coli B834(DE3) or Rosetta(DE3), purified (Ni-NTA, Hitrap Q, Superdex 200)) SKKRCGVLGATGAVGTRFILLLSQHPLLELVAVGASDRSSGKKYRDAVRWKQSAPMPAKVADLTVRCCDPAEFSDCDIIFSGLDPDAAGEIEMAFLKANFAVFSNAKNYRLDPMVPLVVPLVNAGHIDVIPAQRKHFGLDKGMLVCNSNCAVVGLVVPAKALIQKFGPIESVSMVTMQAVSGAGAPGVSSMDIFDNIVPYIPGEEGKISSEARKILGDLNSDLAGFSDQKPLQISVACNRVPVLDGHTVCASLRFVNRPPPTASQVREALREYKPEVQTLGCPSAPKMSIHVMDEVDRPQPRLDRETEGGYACTVGRIREDDSDVFDIQFVALSHNTVLGASGSSILNAESAILKGFV",stoichiometry N,[9],4
"trASADH with the triple mutation R309A-D196A-F198A (enzyme, Aspartate-β-semialdehyde dehydrogenase of Trichophyton rubrum BMU01672 (362 aa) with R309A, D196A and F198A; parent as m1; also called trASADH R309A-D196A-F198A; dimeric triple mutant; source: E. coli B834(DE3) or Rosetta(DE3), purified (Ni-NTA, Hitrap Q, Superdex 200)) SKKRCGVLGATGAVGTRFILLLSQHPLLELVAVGASDRSSGKKYRDAVRWKQSAPMPAKVADLTVRCCDPAEFSDCDIIFSGLDPDAAGEIEMAFLKANFAVFSNAKNYRLDPMVPLVVPLVNAGHIDVIPAQRKHFGLDKGMLVCNSNCAVVGLVVPAKALIQKFGPIESVSMVTMQAVSGAGYPGVSSMAIADNIVPYIPGEEGKISSEARKILGDLNSDLAGFSDQKPLQISVACNRVPVLDGHTVCASLRFVNRPPPTASQVREALREYKPEVQTLGCPSAPKMSIHVMDEVDRPQPRLDAETEGGYACTVGRIREDDSDVFDIQFVALSHNTVLGASGSSILNAESAILKGFV",stoichiometry N,[9],2
"trASADH with mutation F198A (enzyme, Aspartate-β-semialdehyde dehydrogenase of Trichophyton rubrum BMU01672 (362 aa) with the point mutation F198A; parent as m1; also called trASADH-F198A; Mutant F198A; source: E. coli B834(DE3) or Rosetta(DE3), purified (Ni-NTA, Hitrap Q, Superdex 200)) SKKRCGVLGATGAVGTRFILLLSQHPLLELVAVGASDRSSGKKYRDAVRWKQSAPMPAKVADLTVRCCDPAEFSDCDIIFSGLDPDAAGEIEMAFLKANFAVFSNAKNYRLDPMVPLVVPLVNAGHIDVIPAQRKHFGLDKGMLVCNSNCAVVGLVVPAKALIQKFGPIESVSMVTMQAVSGAGYPGVSSMDIADNIVPYIPGEEGKISSEARKILGDLNSDLAGFSDQKPLQISVACNRVPVLDGHTVCASLRFVNRPPPTASQVREALREYKPEVQTLGCPSAPKMSIHVMDEVDRPQPRLDRETEGGYACTVGRIREDDSDVFDIQFVALSHNTVLGASGSSILNAESAILKGFV","enzymatic activity (kcat) at 25 °C, tetrameric single mutant",[7],15.7 s⁻¹
same,stoichiometry N,[9],4
"trASADH with mutation R309A (enzyme, Aspartate-β-semialdehyde dehydrogenase of Trichophyton rubrum BMU01672 (362 aa) with the point mutation R309A; parent as m1; source: E. coli B834(DE3) or Rosetta(DE3), purified (Ni-NTA, Hitrap Q, Superdex 200)) SKKRCGVLGATGAVGTRFILLLSQHPLLELVAVGASDRSSGKKYRDAVRWKQSAPMPAKVADLTVRCCDPAEFSDCDIIFSGLDPDAAGEIEMAFLKANFAVFSNAKNYRLDPMVPLVVPLVNAGHIDVIPAQRKHFGLDKGMLVCNSNCAVVGLVVPAKALIQKFGPIESVSMVTMQAVSGAGYPGVSSMDIFDNIVPYIPGEEGKISSEARKILGDLNSDLAGFSDQKPLQISVACNRVPVLDGHTVCASLRFVNRPPPTASQVREALREYKPEVQTLGCPSAPKMSIHVMDEVDRPQPRLDAETEGGYACTVGRIREDDSDVFDIQFVALSHNTVLGASGSSILNAESAILKGFV","enzymatic activity (kcat) at 25 °C, tetrameric single mutant",[7],12.9 s⁻¹
same,stoichiometry N,[8],4
"Aspartate-β-semialdehyde dehydrogenase from Candida albicans (enzyme, Aspartate-β-semialdehyde dehydrogenase of Candida albicans (fungal ASADH); The construct used for native PAGE is not described; also called caASADH; C. albicans ASADH) MSVKKAGVLGATGSVGQRFILLLSKHPEFEIHALGASSRSAGKKYKDAASWKQTETLPETEQDIVVQECKPEGNFLECDVVFSGLDADVAGDIEKSFVEAGLAVVSNAKNYRREKDVPLVVPIVNPEHIDVVENKVKQAVSKGGKKPGFIICISNCSTAGLVAPLKPLVEKFGPIDALTTTTLQAISGAGFSPGVSGMDILDNIVPYISGEEDKLEWETKKILGGVNAEGTEFVPIPESEMKVSAQCNRVPVIDGHTECISLRFANRPAPSVEDVKQCLREYECAASKLGCHSAPKQTIHVLDQPDRPQPRLDRDRDSGYGVSVGRIREDSLLDFKMVVLSHNTIIGAAGAGILIAEILKAKNII",stoichiometry N,[10],4
